Results from paper PMC12416549 (2024).

T1: TNFR1 (Homo sapiens, UniProt P19438)
T1 chain: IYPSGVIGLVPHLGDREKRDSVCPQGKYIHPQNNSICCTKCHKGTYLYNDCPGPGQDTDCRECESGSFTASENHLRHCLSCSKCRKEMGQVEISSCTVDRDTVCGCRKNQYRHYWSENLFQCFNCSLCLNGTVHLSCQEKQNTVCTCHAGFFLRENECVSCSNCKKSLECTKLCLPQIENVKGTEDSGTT


Biological target: T1, TNFR1
Assay: yeast display SC50

Row | apparent Kd (screen) [pM] | Binder
1 | 2050 | F20A (designed binder) MTLQELLREEALRRAEAEAARYALELLAEKFPEQKEYLLDLAEEIESQIRSLSGVDVEDVRKFLDKEWAWVKELLAEHPAELAEVEAARAARLAELRAEVEAKVAA
2 | 869 | E84K (designed binder) MTLQELLREEALRRAEAEAFRYALELLAEKFPEQKEYLLDLAEEIESQIRSLSGVDVEDVRKFLDKEWAWVKELLAEHPAELAKVEAARAARLAELRAEVEAKVAA
3 | 490 | R13L (designed binder) MTLQELLREEALLRAEAEAFRYALELLAEKFPEQKEYLLDLAEEIESQIRSLSGVDVEDVRKFLDKEWAWVKELLAEHPAELAEVEAARAARLAELRAEVEAKVAA
4 | 490 | L96P (designed binder) MTLQELLREEALRRAEAEAFRYALELLAEKFPEQKEYLLDLAEEIESQIRSLSGVDVEDVRKFLDKEWAWVKELLAEHPAELAEVEAARAARLAEPRAEVEAKVAA
5 | 539 | L75D (designed binder) MTLQELLREEALRRAEAEAFRYALELLAEKFPEQKEYLLDLAEEIESQIRSLSGVDVEDVRKFLDKEWAWVKELDAEHPAELAEVEAARAARLAELRAEVEAKVAA
6 | 653 | D59N (designed binder) MTLQELLREEALRRAEAEAFRYALELLAEKFPEQKEYLLDLAEEIESQIRSLSGVDVENVRKFLDKEWAWVKELLAEHPAELAEVEAARAARLAELRAEVEAKVAA
7 | 304 | E46C (designed binder) MTLQELLREEALRRAEAEAFRYALELLAEKFPEQKEYLLDLAEEICSQIRSLSGVDVEDVRKFLDKEWAWVKELLAEHPAELAEVEAARAARLAELRAEVEAKVAA
8 | 16700 | L7G (designed binder) MTLQELGREEALRRAEAEAFRYALELLAEKFPEQKEYLLDLAEEIESQIRSLSGVDVEDVRKFLDKEWAWVKELLAEHPAELAEVEAARAARLAELRAEVEAKVAA
9 | 869 | F63T (designed binder) MTLQELLREEALRRAEAEAFRYALELLAEKFPEQKEYLLDLAEEIESQIRSLSGVDVEDVRKTLDKEWAWVKELLAEHPAELAEVEAARAARLAELRAEVEAKVAA
10 | 189 | L74W (designed binder) MTLQELLREEALRRAEAEAFRYALELLAEKFPEQKEYLLDLAEEIESQIRSLSGVDVEDVRKFLDKEWAWVKEWLAEHPAELAEVEAARAARLAELRAEVEAKVAA
11 | 539 | L27T (designed binder) MTLQELLREEALRRAEAEAFRYALELTAEKFPEQKEYLLDLAEEIESQIRSLSGVDVEDVRKFLDKEWAWVKELLAEHPAELAEVEAARAARLAELRAEVEAKVAA
12 | 539 | K30Y (designed binder) MTLQELLREEALRRAEAEAFRYALELLAEYFPEQKEYLLDLAEEIESQIRSLSGVDVEDVRKFLDKEWAWVKELLAEHPAELAEVEAARAARLAELRAEVEAKVAA
13 | 539 | E29L (designed binder) MTLQELLREEALRRAEAEAFRYALELLALKFPEQKEYLLDLAEEIESQIRSLSGVDVEDVRKFLDKEWAWVKELLAEHPAELAEVEAARAARLAELRAEVEAKVAA
14 | 446 | A11E (designed binder) MTLQELLREEELRRAEAEAFRYALELLAEKFPEQKEYLLDLAEEIESQIRSLSGVDVEDVRKFLDKEWAWVKELLAEHPAELAEVEAARAARLAELRAEVEAKVAA

More lines, now with the values behind:

Row | Binder | apparent Kd (screen) [pM]
15 | R8F (designed binder) MTLQELLFEEALRRAEAEAFRYALELLAEKFPEQKEYLLDLAEEIESQIRSLSGVDVEDVRKFLDKEWAWVKELLAEHPAELAEVEAARAARLAELRAEVEAKVAA | 490
16 | A23T (designed binder) MTLQELLREEALRRAEAEAFRYTLELLAEKFPEQKEYLLDLAEEIESQIRSLSGVDVEDVRKFLDKEWAWVKELLAEHPAELAEVEAARAARLAELRAEVEAKVAA | 539
17 | R50M (designed binder) MTLQELLREEALRRAEAEAFRYALELLAEKFPEQKEYLLDLAEEIESQIMSLSGVDVEDVRKFLDKEWAWVKELLAEHPAELAEVEAARAARLAELRAEVEAKVAA | 593
18 | E46F (designed binder) MTLQELLREEALRRAEAEAFRYALELLAEKFPEQKEYLLDLAEEIFSQIRSLSGVDVEDVRKFLDKEWAWVKELLAEHPAELAEVEAARAARLAELRAEVEAKVAA | 490
19 | L38Y (designed binder) MTLQELLREEALRRAEAEAFRYALELLAEKFPEQKEYYLDLAEEIESQIRSLSGVDVEDVRKFLDKEWAWVKELLAEHPAELAEVEAARAARLAELRAEVEAKVAA | 790
20 | R50Y (designed binder) MTLQELLREEALRRAEAEAFRYALELLAEKFPEQKEYLLDLAEEIESQIYSLSGVDVEDVRKFLDKEWAWVKELLAEHPAELAEVEAARAARLAELRAEVEAKVAA | 539
21 | E5S (designed binder) MTLQSLLREEALRRAEAEAFRYALELLAEKFPEQKEYLLDLAEEIESQIRSLSGVDVEDVRKFLDKEWAWVKELLAEHPAELAEVEAARAARLAELRAEVEAKVAA | 490
22 | R14M (designed binder) MTLQELLREEALRMAEAEAFRYALELLAEKFPEQKEYLLDLAEEIESQIRSLSGVDVEDVRKFLDKEWAWVKELLAEHPAELAEVEAARAARLAELRAEVEAKVAA | 718
23 | K35W (designed binder) MTLQELLREEALRRAEAEAFRYALELLAEKFPEQWEYLLDLAEEIESQIRSLSGVDVEDVRKFLDKEWAWVKELLAEHPAELAEVEAARAARLAELRAEVEAKVAA | 593
24 | V57L (designed binder) MTLQELLREEALRRAEAEAFRYALELLAEKFPEQKEYLLDLAEEIESQIRSLSGVDLEDVRKFLDKEWAWVKELLAEHPAELAEVEAARAARLAELRAEVEAKVAA | 539
25 | A88E (designed binder) MTLQELLREEALRRAEAEAFRYALELLAEKFPEQKEYLLDLAEEIESQIRSLSGVDVEDVRKFLDKEWAWVKELLAEHPAELAEVEAERAARLAELRAEVEAKVAA | 490
26 | A42G (designed binder) MTLQELLREEALRRAEAEAFRYALELLAEKFPEQKEYLLDLGEEIESQIRSLSGVDVEDVRKFLDKEWAWVKELLAEHPAELAEVEAARAARLAELRAEVEAKVAA | 490
27 | L27V (designed binder) MTLQELLREEALRRAEAEAFRYALELVAEKFPEQKEYLLDLAEEIESQIRSLSGVDVEDVRKFLDKEWAWVKELLAEHPAELAEVEAARAARLAELRAEVEAKVAA | 1540
28 | A69H (designed binder) MTLQELLREEALRRAEAEAFRYALELLAEKFPEQKEYLLDLAEEIESQIRSLSGVDVEDVRKFLDKEWHWVKELLAEHPAELAEVEAARAARLAELRAEVEAKVAA | 869
29 | A98M (designed binder) MTLQELLREEALRRAEAEAFRYALELLAEKFPEQKEYLLDLAEEIESQIRSLSGVDVEDVRKFLDKEWAWVKELLAEHPAELAEVEAARAARLAELRMEVEAKVAA | 653
30 | L26A (designed binder) MTLQELLREEALRRAEAEAFRYALEALAEKFPEQKEYLLDLAEEIESQIRSLSGVDVEDVRKFLDKEWAWVKELLAEHPAELAEVEAARAARLAELRAEVEAKVAA | 718
31 | K72S (designed binder) MTLQELLREEALRRAEAEAFRYALELLAEKFPEQKEYLLDLAEEIESQIRSLSGVDVEDVRKFLDKEWAWVSELLAEHPAELAEVEAARAARLAELRAEVEAKVAA | 490
32 | E9T (designed binder) MTLQELLRTEALRRAEAEAFRYALELLAEKFPEQKEYLLDLAEEIESQIRSLSGVDVEDVRKFLDKEWAWVKELLAEHPAELAEVEAARAARLAELRAEVEAKVAA | 956
33 | E33I (designed binder) MTLQELLREEALRRAEAEAFRYALELLAEKFPIQKEYLLDLAEEIESQIRSLSGVDVEDVRKFLDKEWAWVKELLAEHPAELAEVEAARAARLAELRAEVEAKVAA | 718
34 | E36A (designed binder) MTLQELLREEALRRAEAEAFRYALELLAEKFPEQKAYLLDLAEEIESQIRSLSGVDVEDVRKFLDKEWAWVKELLAEHPAELAEVEAARAARLAELRAEVEAKVAA | 490
35 | V100T (designed binder) MTLQELLREEALRRAEAEAFRYALELLAEKFPEQKEYLLDLAEEIESQIRSLSGVDVEDVRKFLDKEWAWVKELLAEHPAELAEVEAARAARLAELRAETEAKVAA | 490
